The subject of one data set is P69949. The data set can be described thus: AUC; sedimentation velocity of Str. enolase alone, TME-SO4, 20°C, 37000 rpm; c(s) distribution, percent octamer and monomer; octamer to monomers and other species.
The target in data set [1] is Str. enolase DB (Streptococcus pyogenes) (UniProt P69949). Described as above.
The target in data set [2] is Str. enolase DB no hexa-his tag (Streptococcus pyogenes) (UniProt P69949). Described as above.
Data set [3] has as its target Str. enolase F137L/E363G (Streptococcus pyogenes) (UniProt P69949). The data set can be described thus: AUC; sedimentation velocity of Str. enolase alone in different buffers (KPi with or without Mg(II), NaCl, imidazole; TME-SO4); octamer to monomers, dimers, tetramers.
Data set [4] addresses Str. enolase 137/363–4 (Streptococcus pyogenes) (UniProt P69949). Briefly: SPR; localized SPR (Nicoya OpenSPR); hexa-his-tagged Str. enolase 137/363–4 immobilised on a Ni-NTA chip, DPgn injected at successive concentrations in duplicate, ovalbumin as control; Pi, imidazole, NaCl buffer; close to 27 °C; one to two model (TraceDrawer 1.5).
The target of data set [5] is Str. enolase 137/363–2 K252A K255A (Streptococcus pyogenes) (UniProt P69949). Briefly: dual polarization interferometry (DPI); Str. enolase adsorbed first on an unmodified silicon oxynitride chip, then DPgn injected; 3 μM each protein, 8 min injections, 25 μL/min/channel, 20°C; proteins in TME-SO4, wash buffer 10 mM phosphate.
In data set [6] the target is Str. enolase DB (Streptococcus pyogenes) (UniProt P69949). The description is as above.
The target is the same in data set [7]. Briefly: AUC; sedimentation velocity, 20°C, 37000 rpm, TME-SO4; DPgn alone, Str. enolase alone and the mixture at the same concentrations; shift of the s value of the DPgn peak (Sedfit c(s), DCDT+).
The target of data set [8] is Str. enolase 137/363–4 (Streptococcus pyogenes) (UniProt P69949). Briefly: AUC; sedimentation velocity, TME-SO4, 20°C; five concentrations of 137/363–4 (1-11.7 μM) and DPgn (0.43-4.2 μM); global fit to an equilibrium constant in Sedphat.

The record followed here is publication PMC6336276.

Substance Str. enolase 137/363–2 K252A K255A yielded a % monomer (from AUC) with P69949 of 70.4%.
The same measure, in the same setting: next, Str. enolase DB: 0.4 (nil?).
In data set [1], “Str. enolase DB (from UniProt P69949 1-435) (enzyme)” returned a % octamer (from AUC) of 88% and a stoichiometry N of 8.
Str. enolase DB no hexa-his tag gave a % monomer (from AUC) with P69949 of 1.3%.
As to “Str. enolase DB no hexa-his tag (from UniProt P69949 1-435) (enzyme)”, the % octamer (from AUC) in data set [2] came out at 81.6%.
Substance “Str. enolase F137L/E363G (from UniProt P69949 1-435) (enzyme)” showed a stoichiometry N in data set [3] of 8.
For canine plasminogen (natural protein), in data set [4], the KD1 (site 1 of a one to two model) came to 1.34 µM, the KD2 (site 2 of a one to two model) turned out to be 2.66 µM, the ka1 (site 1 of a one to two model) is 1300 and the ka2 (site 2 of a one to two model) was determined as 9600. Also, in data set [4], the kd1 (site 1 of a one to two model) is 0.0017, the kd2 (site 2 of a one to two model) was found to be 0.026 and the stoichiometry N (DPgn per enolase monomer) was determined as 1.6. For the same substance, the mass of enolase + DPgn layer in data set [5] is 5.3 ng/mm^2. In addition, the mass of enolase + DPgn layer in data set [6] came out at 2.8 ng/mm^2. Moreover, the Ka in [7] is < 10000 M⁻¹. In data set [8], this substance gave a Ka of 340000 M⁻¹ and a Kd of 3000 nM.

Broadly, the stoichiometry N is the number of molecules, sites or subunits per partner or assembly. A word on the Kd: it is the concentration at which binding is half-saturated. A low value points to higher affinity.
